In the nanobody polyreactivity screen of Harvey et al. (2022):

Assay: yeast display, Sf9 membrane polyspecificity reagent, FACS + sequencing; frameworks hold sequencing errors
In short: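 Galactose induction of a Saccharomyces cerevisiae BJ5465 synthetic nanobody display library ran 36–48 hours. The cells were then stained for 1 hour at 4 °C with 10% biotinylated, detergent-solubilized Sf9 membrane reagent, pulled down on streptavidin microbeads and FACS-sorted into low and high (top ~1%) gates on expression and reagent-binding fluorescence. Labels for polyreactivity follow the gate of origin.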

Row | Sequence | polyreactivity (PSR sort gate)
1 | QVQLVESGGGLVQAGGSLRLSCAASGSTFPSNAMGWYRQAPGKESELVAAISDSGSTTYYADSVKGRFTISRDNAKNTVYLQMNSLKPEDTAVYYCNAYLRFVDVSLDYQLLLEHDYWGQGTQVTVSS | low polyreactivity
2 | QVQLVESGGGLVQAGGSLRLSCAASGSTFPSYAMGWYRQAPGKERELVAAINSGGGTNYADSVKGRFTISRDNAKNTVYLQMNSLKPEDTAVYYCAKSRYDYTKTEGGYWGQGSQVTVSS | low polyreactivity
3 | QVQLVESGGGLVQAGGSLRLSCAASGSTFPSYAMGWYRQAPGKERELVAAINSGGGTNYADSVKGRFTISRDNAKNTVYLQMNSLKPEDTAVYYCATDDPLSQINEQGMDYWGQGTQVTVSS | low polyreactivity
4 | QVQLVESGGGLVQAGGSLRLSCAASGSTFPSYAMGWYRQAPGKERELVAAISRRSSRTYYADSVKGRFTISRDNAKNTVYLQMNSLKPEDTAVYYCNADAGRHSDEYGYDYWGQGTQVTVSS | high polyreactivity
5 | QVQLVESGGGLVQAGGSLRLSCAASGSTFPVNAMGWYRQAPGKERELVARIRGSGGSTYYADSVKGRFTISRDNAKNTVYLQINSLKPEDTAVYYCAARYIGYSSYKYDYWGQGTQVTVSS | high polyreactivity
6 | QVQLVESGGGLVQAGGSLRLSCAASGSTFPVYAMGWYRQAPGKERELVAAISRAGSTNYADSVKGRFTISRDNAKNTVYLQMNSLKPEDTAVYYCAARGYLWAGEWYVRRDYWGQGTQVTVSS | high polyreactivity
7 | QVQLVESGGGLVQAGGSLRLSCAASGSTFPVYAMGWYRQAPGKERELVAAITSGVSTNYADSVKGRFTISRDNAKNTVYLQMNSLKPEDTAFYYCAKDFGLLPIRDDYWGQGTQVTVSS | low polyreactivity
8 | QVQLVESGGGLVQAGGSLRLSCAASGSTFPVYAMGWYRQEPGKERELVAAITSGVSTNYADSVKGRFTISRDNAKNTVYLQMNSLKPEDTAVYYCAKDFGLLPIRDDYWGQGTQVTVSS | low polyreactivity
9 | QVQLVESGGGLVQAGGSLRLSCAASGSTFPWNAMGWYRQAPGKERELVAAIRTGGGRTYYADSVKGRFTISRDNAKNTVYLQMNSLKPEDTAVYYCNAYQSSGRYRNSYGYWGQGTQVTVSS | high polyreactivity
10 | QVQLVESGGGLVQAGGSLRLSCAASGSTFPWYAMGWARQAPGKETELVAAITTSGGTTYYADSVKGRFTISRDNAKNTVYLQMNSLKPEDTAVYYCNKQFGYPWEYYSYSYDYWGQGTQVTVSS | low polyreactivity
11 | QVQLVESGGGLVQAGGSLRLSCAASGSTFPWYAMGWYRQAPGKERELVAAISFSGGSTYYADSVKGRFTISRDNAKNTVYFQMNSLKPEDTAVYYCAAVWGYVIWVDTAVYREYDYWGQGTQVTVSS | high polyreactivity
12 | QVQLVESGGGLVQAGGSLRLSCAASGSTFPYYAMGRYRPAPGKEMELVAAISQNGGSSYYADSVKGRFTISRDNAKNTVYLQINSLKPEDTAVYYCNADGVGGEYRLSGYDYWGQGTQVTVSS | low polyreactivity
13 | QVQLVESGGGLVQAGGSLRLSCAASGSTFPYYAMGWSRQAPGKERELVAAISGSGGTTYYADSVKGRFTISRDNAKNTVYLQMNSLKPEYTAVYYCAVDIGVGYGYYYWGQGTQVTVSS | low polyreactivity
14 | QVQLVESGGGLVQAGGSLRLSCAASGSTFPYYAMGWYRQAPGKERELVAAISQNGGSTYYADSVKGRFTISRDNAKNTVYLQMNSLKPEDTAVYYCNADGVGGEYRLSGYDYWGQGTQVTVSS | low polyreactivity
15 | QVQLVESGGGLVQAGGSLRLSCAASGSTFPYYAMGWYRQAPGKERELVAAISSSGGSTYYADSVKGRFTFSRDNAKNTVYLLMNSLKPEDTAVYYCNVVKSRGLFSYDYWGQGSQVTVSS | high polyreactivity
16 | QVQLVESGGGLVQAGGSLRLSCAASGSTFPYYAMGWYRQAPGKERELVATITTSGVSTYYADSVKGRFTISRDNAKNTVYLQMNSLKPEDTAVYYCAADPPGFTQYGYWGQGTQVTVSS | low polyreactivity
17 | QVQLVESGGGLVQAGGSLRLSCAASGSTFPYYAMGWYRQAPGKERELVAVITSSGSRTYYADSVKGRFTISRDNAKNTVYLQMNSLKPEDTAVYYCARDTRYYRPYRSQYDYWGQGTQVTVSS | high polyreactivity
18 | QVQLVESGGGLVQAGGSLRLSCAASGSTFPYYAMGWYRQATGKERELVAAISSGGRTTYADSVKGRFTISRDNAKNTVYLQMNSLKPEDTAVYYCNRRYTHGGFSKYEYWGQGTQVTVSS | high polyreactivity
19 | QVQLVESGGGLVQAGGSLRLSCAASGSTFQFYAMGWYRQAPGKERELVASITSRGGNTHYADSVKGRFTISRDNAKNTVYLQMNSLKPEDTAVYYCAARGGWYGTYDYWGQGTQVTVSS | low polyreactivity
20 | QVQLVESGGGLVQAGGSLRLSCAASGSTFQFYAMRWYRQAPGKERDLVAAIRSSDDSTYYADSVKGRFTISRDNAKNTVYLQMKSLKPEDTAVYYCAAVLDFYGVWYDYWGQGTQVTVSS | high polyreactivity
21 | QVQLVESGGGLVQAGGSLRLSCAASGSTFQGYSMGWYRPAPGKERELVAAISGSGGNTYYADSVKGRFTISRDNAKNTVYLQMNSLKPEDTAVYYCAAGHVRTDWRYGYWGQGTQVTVSS | low polyreactivity
22 | QVQLVESGGGLVQAGGSLRLSCAASGSTFQINAMGWYRQATGTERELGAAIDGGGDTYYADSVKGRFTISRDNAKNTFYLQMNSLKPEDTAVYYCNARSWARKSNGGSRIRYDYWGQGTQVTVSS | low polyreactivity

Row | Sequence | polyreactivity (PSR sort gate)
23 | QVQLVESGGGLVQAGGSLRLSCAASGSTFQNNAMGWSRQAPGKERELVAGITGGGGNTNYADSVKGRFTISRDNTKNTVYLQMNSRTPEDTAVYYCAADDPWLGVDFGYWGQGTQVTLSS | low polyreactivity
24 | QVQLVESGGGLVQAGGSLRLSCAASGSTFQPYAMGWYRQAPGKERELVAAISWSGVSTSYADSVKGRFTISRDNAKNTVYLQMNSLKPEETAVYYPFYEYYYWVQGTQVTVSS | low polyreactivity
25 | QVQLVESGGGLVQAGGSLRLSCAASGSTFQRYAMGWYRQAPGKERELVAAITSGGSTYYADSVKGRFTISRDNAKNTVYLQMISLKPEDTAVYYCNAAWFYRYGYWGQGTQVTVSS | high polyreactivity
26 | QVQLVESGGGLVQAGGSLRLSCAASGSTFQSNAMGWYRQAPGTEREMVATITRGGGTSYADSVKGRFTISRDNAKNTVYVQMNSLQPEDTAVYYCNARRQRYYTQGRFYYWGQGTQVTVSS | high polyreactivity
27 | QVQLVESGGGLVQAGGSLRLSCAASGSTFQSNARGWYRQAPGKERELVASITSSGVSTYYADSVKGRFTISRDNAKNTVYLQMNSLKPEDTAVYYCAASSYDAYDYGFRFDYWGQGTQVTVSS | low polyreactivity
28 | QVQLVESGGGLVQAGGSLRLSCAASGSTFQSYAMGWYRQAPGKERELVAAITTTGTRTYYADSVKGRFTISRDNAKNTVYFQMNSLKPEDTAVYSCNAQRLQAHRTSRRYDYWGQGTQVTVSS | high polyreactivity
29 | QVQLVESGGGLVQAGGSLRLSCAASGSTFQTYAMGWFRQAPGQERELVAAITSGGSTNYADSVKGRFTISRDNAKNTVSLQMNSLKPEDTAVYYCNKKSRRQYDYWGQGTQVTVSS | low polyreactivity
30 | QVQLVESGGGLVQAGGSLRLSCAASGSTFQVNVMGWYRPAPGKEREFVAGISYSGGSTYYADSVKGRFTISRDNAKNTVYLQMNSLKPDDTAVYYCAAEEDYNIAGSWTYTYDYWGQGTQVTVSS | low polyreactivity
31 | QVQLVESGGGLVQAGGSLRLSCAASGSTFQVYAMGWYRQAPGKERELVAAISYRDGNTYYADSVKGRFTISRDNAKNTFYLQMNSLKPEDTAVYYCNAGLYLPSGYRRSNGYESDYWGQGTQVTVSS | high polyreactivity
32 | QVQLVESGGGLVQAGGSLRLSCAASGSTFQWNALGWYRQAPGKERELVASITDSGGRTNYADSVKGRFTISRDNAKNTVYLQMNSLKPEDTAVYYCNAAGYRRSTWWYDYWGQGSQVTVSS | high polyreactivity
33 | QVQLVESGGGLVQAGGSLRLSCAASGSTFQWNAMGWYRQAPGKERELVASITDSGGRTYYADSVKGRFTISRDNAKNTVYLQMNSLKPEDTAVYYCAAVSLWWSDYYFVEYDYWGQGTQVTVSS | high polyreactivity
34 | QVQLVESGGGLVQAGGSLRLSCAASGSTFQWYAMGWYRQAPGKERELVAAITKSGGSTYYADSVKGRFTISRDNAKNTVYLQMNSLKPEDTAVYYCAAGFWYYATEYDYWGQGTQVTVSS | low polyreactivity
35 | QVQLVESGGGLVQAGGSLRLSCAASGSTFQYNAKGWYRQAPGKERELVAAISSGGSTYYADSVKGRFTISRDNAKNTVYLQMNSLKPEDTAVYYCNALSRRQNWAGEVYYWGQGTQVTVSS | high polyreactivity
36 | QVQLVESGGGLVQAGGSLRLSCAASGSTFQYYAMGWYREAPGKERELVAAITHSGTRTYYADSVKGRYTISRDNAKNTVYLQMNTLKPEDTAGYYCAARGYGKYDYWGQGTQVTVSS | high polyreactivity
37 | QVQLVESGGGLVQAGGSLRLSCAASGSTFQYYAMGWYSQAPGKERELVAAISYGGSRTYYADSVKGRFTISRDNAKNTVYLQMNSLKPEDTAVYYCAKEKYRALAPYYYWGQGTQVTVSS | high polyreactivity
38 | QVQLVESGGGLVQAGGSLRLSCAASGSTFRANAMGWYRQAPGKERELVAAIRWRGVGTYYADSVKGRFTISRDNAKNTVYLQMNSLKPEDTAVYYCAARRLGRSGNGSWGQGTQVTVSS | high polyreactivity
39 | QVQLVESGGGLVQAGGSLRLSCAASGSTFRDYAMGWYRQAPGKERELVAAITSGGSTNYADSVKGRFTISRDNAKNTVYLQMNSLKPEDTAVYYCNARYAGWYTPWGRQSVYSDDYWGQGTQVTVSS | low polyreactivity
40 | QVQLVESGGGLVQAGGSLRLSCAASGSTFRDYDMGWYRQAPGKERELVAAISRSGGRTYYADSVKGRFTISRDNAKNTVYLQMNSLKPEDTAVYYCAARRYTRRANPAYPYEYWGQGTQVTVSS | high polyreactivity
41 | QVQLVESGGGLVQAGGSLRLSCAASGSTFRFNAMGWYRQAPGKERELVAVIRWRGGTTYYADSVKGRFTISRDNAKNTVYLQMKSLKPEDTAVYYCNADYWGQGTQVTVSS | high polyreactivity
42 | QVQLVESGGGLVQAGGSLRLSCAASGSTFRFYAMGWYRQAPGKERELVATISSSGGTTYYADSVKGRFTISRDNAKNTVYLQMNSLKPEDTAVYYCAKDAFGWGRVYYYRSGYWGQGTQVTVSS | high polyreactivity
43 | QVQLVESGGGLVQAGGSLRLSCAASGSTFRFYAMGWYRQAPGKERELVAVIRSTGSTYYADSVKGRFTISRDNAKNTVYLQMNSLKPEDTAVYYCAAQNAWWSNGRSYDYWGQGTQVTVSS | low polyreactivity
